Molecular target: GST fused to Las17 fragment P8-12 (GST-P8-12) (S. cerevisiae) (UniProt Q12446)
Assay: pull-down

UniProt Q12446, sequence (Q12446 300-404): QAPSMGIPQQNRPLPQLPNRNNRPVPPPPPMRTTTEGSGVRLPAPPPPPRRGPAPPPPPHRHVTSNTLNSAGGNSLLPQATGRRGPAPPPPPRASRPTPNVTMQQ

## hexahistidine-tagged Sla1 fragment spanning the SH3 domains 1 and 2 (His-Sla1-SH3-1-2) (domain or fragment)
  Kd: 0.056 µM
